Assay results: patent US20250195629A1, “SITE-SPECIFIC BRAIN THERAPEUTICS” (William Marsh Rice University, priority 2023, published 2025)

B1: AADC-IKVAV: aromatic-L-amino-acid decarboxylase (AADC) protein fused with short peptide IKVAV (SEQ ID NO: 23); CDS SEQ ID NO: 21 (protein)
chain: MRGSHHHHHHGMASMTGGQQMGRDLYDDDDKDPMNASEFRRRGKEMVDYMANYMEGIEGRQVYPDVEPGYLRPLIPAAAPQEPDTFEDIINDVEKIIMPGVTHWHSPYFFAYFPTASSYPAMLADMLCGAIGCIGFSWAASPACTELETVMMDWLGKMLELPKAFLNEKAGEGGGVIQGSASEATLVALLAARTKVIHRLQAASPELTQAAIMEKLVAYSSDQAHSSVERAGLIGGVKLKAIPSDGNFAMRASALQEALERDKAAGLIPFFMVATLGTTTCCSFDNLLEVGPICNKEDIWLHVDAAYAGSAFICPEFRHLLNGVEFADSFNFNPHKWLLVNFDCSAMWVKKRTDLTGAFRLDPTYLKHSHQDSGLITDYRHWQIPLGRRFRSLKMWFVFRMYGVKGLQAYIRKHVQLSHEFESLVRQDPRFEICVEVILGLVCFRLKGSNKVNEALLQRINSAKKIHLVPCHLRDKFVLRFAICSRTVESAHVQRAWEHIKELAADVLRAEREGGSGSSGGSGGSGGSGIKVAV
modifications: misc_feature 1..1602 Synthetic: AADC-IKVAV

Legend:
wild-type C57BL/6J mice = test: Locomotor behavior test (open field) before and after L-DOPA; format: in vivo, mouse
Source text: RAID neuromodulation provides an approach for precise modulation of brain activity through regionally activated interstitial drug delivery. It should be noted, site-specific, noninvasive methods hold promise for controlled behavioral modulation. As such, to evaluate long-term efficacy of RAID neuromodulation, RAID's ability to sustain behavioral control over time is described herein. In some embodiments, to measure effects of RAID neuromodulation on behavior, targeting dorsal striatum with two FUS sites are be analyzed. In some instances, effects of RAID neuromodulation by targeting dorsal striatum with two FUS sites can be used to increase an amount of on-target delivery of AADC in the CPu region that contains dopamine-responsive cells. […] With this in mind, in certain embodiments, a pair of AADC-IKVAV (SEQ ID NO: 23) and L-DOPA may be used to evaluate whether RAID can induce similar behavioral changes after the prodrug administration. In some embodiments, AADC-IKVAV (SEQ ID NO: 23) is delivered via FUS-BBBO to two sites in the left striatum region of wild type mice. FIG. 11a illustrates embodiments of RAID control of behavior through targeted neuromodulation including an experimental scheme for RAID-induced control of motor behavior by targeted activation of dopamine neurons, in accordance with embodiments described herein. As illustrated, FUS in two sites of the left striatum are used to deliver AADC-IKVAV (SEQ ID NO: 23) (250 mg/kg, i.v. injection) or PBS buffer control. After 2 days, open field test (OFT) was performed twice before and after a single injection of the prodrug L-DOPA (2 mg/kg, i.p.), allowing 200 minutes between each test. The locomotor activity was recorded for 15 min after a habituation period of 5 min in each test. After the testing, mice were perfused 2 h after L-DOPA administration for histologic examination of AADC-IKVAV (SEQ ID NO: 23) retention and neuron activation (c-Fos+) to confirm localize neuromodulation. As schematically depicted in FIG. 11a, the AADC protein fused with a short peptide IKVAV (SEQ ID NO: 23) (e.g., AADC-IKVAV (SEQ ID NO: 23)) to two sites in the left striatum of wild-type mice using FUS-BBBO. After 46 hours, the mice underwent an open field (OF) test to assess baseline locomotor activity over a 20-minute period. The mice were then returned to their home cages and, 100 minutes later, received an intraperitoneal injection of L-DOPA (2 mg/kg) before undergoing another OF test.
Locomotor behavior test—Two groups of mice underwent FUS-BBBO targeting two sites at left striatum immediately after intravenous injection of recombinant protein AADC-IKVAV (SEQ ID NO: 23) (n=14 mice for FUS+AADC-IKVAV group, 20 mg/mL, 250 mg/kg) or equivalent volume of PBS buffer (n=11 mice for FUS alone group). Another group without FUS-BBBO procedure served as wild type control (n=12 mice for WT group). After 46 h, the first session of behavioral test was performed in a custom-made non-transparent open field box (30.5 cm×30.5 cm) as a baseline. Each mouse was individually placed into the apparatus center with a light intensity and background noise at ˜320 lux and 46 dB (400 Hz peak), respectively. After a habituation period of 5 min, the locomotor activity of a freely-moving mouse was recorded for 15 min by a video tracking system (Stoelting Co.) consisting of an overhead camera connected to a computer with Any-Maze software. Behavioral measures include total distance traveled, average and maximum speed, freezing time and episodes, mobile/immobile time and episodes, clockwise and counterclockwise rotations and head turn angles. The mouse was returned to the home cage immediately after testing. After 90 min, the mice were intraperitoneally injected with carbidopa (25 mg/kg) and 10 min later L-DOPA (2 mg/kg) as described above. A second session of open field test 100 min after L-DOPA injection.

brain tissue = test: Safety analysis, hematoxylin staining of brain sections; format: in vivo, mouse; details: RAID approach, FUS+AADC-IKVAV+L-DOPA, behavior study
Description: Additionally, the brain sections stained for GFAP were imaged using a 4× objective in DAPI (nuclei) and far-red (GFAP) channels. Three square areas were then selected in both the left and right striatum respectively, each with 3×3 binning, for imaging with a 40× objective to quantify GFAP+ cells. Safety analysis—To investigate potential lesions resulting from the use of FUS-BBBO in the RAID protocol, hematoxylin staining was performed (n=11 mice for FUS alone+L-DOPA group and n=14 mice for FUS+AADC-IKVAV (SEQ ID NO: 23)+L-DOPA group) on the adjacent sections of each representative section used for c-Fos staining, which was associated with behavior analysis as shown in FIG. 11. Hematoxylin staining was conducted according to the following steps: […] (5) This was followed by a 3-minute wash in H2O; (6) A 20-second soak in Bluing Reagent (H&E Staining Kit, Abcam ab245880) was carried out; (7) Another 3-minute wash in H2O followed; […]

[1] = FUS+AADC-IKVAV alone, 46 h, vs WT and FUS alone

Row | Molecule | decrease of clockwise (contralateral) rotation after L-DOPA (wild-type C57BL/6J mice; FUS alone group, L-DOPA 2 mg/kg i.p.) | change in episodes of mobility after L-DOPA (wild-type C57BL/6J mice; control groups, FUS alone or wild type, L-DOPA 2 mg/kg i.p.) | reduction of counter-clockwise (ipsilateral) rotations after L-DOPA (wild-type C57BL/6J mice; control mice with FUS alone or no treatment, L-DOPA 2 mg/kg i.p.) | decrease of clockwise (contralateral) rotation after L-DOPA (wild-type C57BL/6J mice; untreated wild-type group, L-DOPA 2 mg/kg i.p.) | counter-clockwise rotations before L-DOPA administration (wild-type C57BL/6J mice; [1]) | number of mobile episodes before L-DOPA administration (wild-type C57BL/6J mice; [1]) | clockwise (contralateral) rotation after L-DOPA (wild-type C57BL/6J mice; RAID treatment: FUS + AADC-IKVAV, L-DOPA 2 mg/kg i.p.) | decrease in mobile episodes after L-DOPA (wild-type C57BL/6J mice; RAID: FUS two sites left striatum + AADC-IKVAV 250 mg/kg i.v., 2 days, L-DOPA 2 mg/kg i.p.) | reduction of counter-clockwise (ipsilateral) rotations after L-DOPA (wild-type C57BL/6J mice; full RAID treatment: FUS + AADC-IKVAV 250 mg/kg i.v., L-DOPA 2 mg/kg i.p.) | tissue damage or bleeding by hematoxylin staining (brain tissue)
1 | N[C@@H](Cc1ccc(O)c(O)c1)C(=O)O [L-DOPA, reference compound] | 44±13% | no significant change | not in the control mice | 52±8% |  |  |  |  |  | 
2 | B1 |  |  |  |  | no effect | no effect | prevented that decrease | 38±8% | 63±10% | didn't cause observable tissue damage or bleeding
